Molecular target: B lymphoma cell lines Raji or Daudi (CD20 and CD22)
Assay: FACS on Raji cells, Alexa Fluor 488 anti-human IgG1, MFI; binder is a 1:1 mixture

EC50: 3.25 nM
Substance: Epratuzumab/ Ofatumumab (1:1)
